Results from paper PMC3709506, “Comparative cross-linking and mass spectrometry of an intact F-type ATPase suggest a role for phosphorylation” (Nature Communications, 2013).

B1: chloroplast ATP synthase (cATPase) subunit β, untreated enzyme (natural protein, Spinacia oleracea, UniProt P00825 1-498, looked up)
chain: MRINPTTSDPGVSTLEKKNLGRIAQIIGPVLDVAFPPGKMPNIYNALIVKGRDTAGQPMNVTCEVQQLLGNNRVRAVAMSATDGLTRGMEVIDTGAPLSVPVGGATLGRIFNVLGEPVDNLGPVDTRTTSPIHRSAPAFTQLDTKLSIFETGIKVVDLLAPYRRGGKIGLFGGAGVGKTVLIMELINNIAKAHGGVSVFGGVGERTREGNDLYMEMKESGVINEQNIAESKVALVYGQMNEPPGARMRVGLTALTMAEYFRDVNEQDVLLFIDNIFRFVQAGSEVSALLGRMPSAVGYQPTLSTEMGSLQERITSTKEGSITSIQAVYVPADDLTDPAPATTFAHLDATTVLSRGLAAKGIYPAVDPLDSTSTMLQPRIVGEEHYEIAQRVKETLQRYKELQDIIAILGLDELSEEDRLTVARARKIERFLSQPFFVAEVFTGSPGKYVGLAETIRGFQLILSGELDSLPEQAFYLVGNIDEATAKAMNLEMESKLKK
modifications: phosphosites identified at S8, T54
notes: ATP synthase subunit beta, chloroplastic, Spinacia oleracea; K498 is called the carboxy-terminal residue; Three copies stand in the F1 head (α3β3); also called β-subunit; source: purified from spinach leaves as part of the intact F1FO chloroplast ATP synthase
B2: cATPase subunit β, dephosphorylated enzyme (natural protein, Spinacia oleracea, UniProt P00825 1-498, looked up)
chain: MRINPTTSDPGVSTLEKKNLGRIAQIIGPVLDVAFPPGKMPNIYNALIVKGRDTAGQPMNVTCEVQQLLGNNRVRAVAMSATDGLTRGMEVIDTGAPLSVPVGGATLGRIFNVLGEPVDNLGPVDTRTTSPIHRSAPAFTQLDTKLSIFETGIKVVDLLAPYRRGGKIGLFGGAGVGKTVLIMELINNIAKAHGGVSVFGGVGERTREGNDLYMEMKESGVINEQNIAESKVALVYGQMNEPPGARMRVGLTALTMAEYFRDVNEQDVLLFIDNIFRFVQAGSEVSALLGRMPSAVGYQPTLSTEMGSLQERITSTKEGSITSIQAVYVPADDLTDPAPATTFAHLDATTVLSRGLAAKGIYPAVDPLDSTSTMLQPRIVGEEHYEIAQRVKETLQRYKELQDIIAILGLDELSEEDRLTVARARKIERFLSQPFFVAEVFTGSPGKYVGLAETIRGFQLILSGELDSLPEQAFYLVGNIDEATAKAMNLEMESKLKK
notes: ATP synthase subunit beta, chloroplastic, Spinacia oleracea; as m2 but treated with phosphatase; The whole complex was treated with the phosphatase; also called β (dephosphorylated form)
B5: cATPase subunit α, dephosphorylated enzyme (natural protein, Spinacia oleracea, UniProt P06450 1-507, looked up)
chain: MATIRADEISKIIRERIEGYNREVKVVNTGTVLQVGDGIARIHGLDEVMAGELVEFEEGTIGIALNLESNNVGVVLMGDGLMIQEGSSVKATGRIAQIPVSEAYLGRVINALAKPIDGRGEITASESRLIESPAPGIMSRRSVYEPLQTGLIAIDAMIPVGRGQRELIIGDRQTGKTAVATDTILNQQGQNVICVYVAIGQKASSVAQVVTNFQERGAMEYTIVVAETADSPATLQYLAPYTGAALAEYFMYRERHTLIIYDDLSKQAQAYRQMSLLLRRPPGREAYPGDVFYLHSRLLERAAKLSSLLGEGSMTALPIVETQAGDVSAYIPTNVISITDGQIFLSADLFNAGIRPAINVGISVSRVGSAAQIKAMKKVAGKLKLELAQFAELEAFAQFASDLDKATQNQLARGQRLRELLKQPQSAPLTVEEQVMTIYTGTNGYLDSLELDQVRKYLVELRTYVKTNKPEFQEIISSTKTFTEEAEALLKEAIQEQMERFLLQEQA
notes: ATP synthase subunit alpha, chloroplastic, Spinacia oleracea; as m1 but treated with phosphatase; The whole complex was treated; also called α (dephosphorylated form)

Tests used:
Conditions in all cases: both partners purified
[1] = molecular target: T1, chloroplast ATP synthase (cATPase) subunit α, untreated enzyme (Spinacia oleracea, UniProt P06450 1-507, phosphosites identified at S127, Y196, S369, T442); experiment: cross-linking; untreated cATPase, 1:1 mixture of 2.5 mM BS3-d4 and 2.5 mM BS3-d0, 1 h at room temperature; NuPAGE gel, in-gel digestion, LC-MS/MS, MassMatrix search, manual validation
T1 construct: ATP synthase subunit alpha, chloroplastic, Spinacia oleracea; Three copies stand in the F1 head (α3β3); also called α subunit; source: purified from spinach leaves as part of the intact F1FO chloroplast ATP synthase

[2] = molecular target: B5; experiment: cross-linking; comparative: dephosphorylated cATPase (calf intestinal alkaline phosphatase, 37 °C) cross-linked with 2.5 mM deuterated BS3, untreated cATPase with non-deuterated BS3, pooled; areas of extracted ion chromatograms of heavy and light cross-links compared
[3] = molecular target: B2; experiment: as above
[4] = molecular target: T2, chloroplast ATP synthase (cATPase) subunit γ (Spinacia oleracea, UniProt P05435 42-364); experiment: cross-linking; untreated cATPase, 1:1 mixture of 2.5 mM BS3-d4 and 2.5 mM BS3-d0, 1 h at room temperature; NuPAGE gel, in-gel digestion, LC-MS/MS, MassMatrix search, manual validation
T2 construct: ATP synthase gamma chain, chloroplastic, Spinacia oleracea; also called γ-subunit; source: purified from spinach leaves as part of the intact F1FO chloroplast ATP synthase
T2 sequence (looked up): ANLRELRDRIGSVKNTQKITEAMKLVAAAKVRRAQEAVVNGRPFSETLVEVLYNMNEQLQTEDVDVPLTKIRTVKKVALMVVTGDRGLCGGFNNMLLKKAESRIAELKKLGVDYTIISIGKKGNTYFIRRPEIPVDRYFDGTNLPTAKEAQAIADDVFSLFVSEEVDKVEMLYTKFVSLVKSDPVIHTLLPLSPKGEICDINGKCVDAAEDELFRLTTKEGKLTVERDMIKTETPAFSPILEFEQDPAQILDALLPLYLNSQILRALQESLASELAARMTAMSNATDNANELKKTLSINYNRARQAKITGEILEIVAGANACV

[5] = molecular target: B1; experiment: as above

**Q.** Does B1 bind [1]?
**A.** Result: binds

**Q.** Does B2 bind [2]?
**A.** Result: binds

B3: cATPase subunit ε, dephosphorylated enzyme (natural protein, Spinacia oleracea, UniProt P00833 1-134, looked up)
chain: MTLNLCVLTPNRSIWNSEVKEIILSTNSGQIGVLPNHAPTATAVDIGILRIRLNDQWLTLALMGGFARIGNNEITILVNDAERGSDIDPQEAQQTLEIAEANLRKAEGKRQKIEANLALRRARTRVEASNTISS
notes: ATP synthase epsilon chain, chloroplastic, Spinacia oleracea; as m4 but treated with phosphatase; The whole complex was treated with the phosphatase; also called ε (dephosphorylated form)
**Q.** Does B3 bind [3]?
**A.** Result: binds

**Q.** Does B3 bind [2]?
**A.** Result: binds

B4: chloroplast ATP synthase (cATPase) subunit ε, untreated enzyme (natural protein, Spinacia oleracea, UniProt P00833 1-134, looked up)
chain: MTLNLCVLTPNRSIWNSEVKEIILSTNSGQIGVLPNHAPTATAVDIGILRIRLNDQWLTLALMGGFARIGNNEITILVNDAERGSDIDPQEAQQTLEIAEANLRKAEGKRQKIEANLALRRARTRVEASNTISS
modifications: phosphosite identified at S13
notes: ATP synthase epsilon chain, chloroplastic, Spinacia oleracea; also called ε-subunit; source: purified from spinach leaves as part of the intact F1FO chloroplast ATP synthase
**Q.** What does the source list for B4?
**A.** binding result [4]: binds; binding result [5]: binds; binding result [1]: binds

**Q.** B5 was tested. Which “fold decrease of cross-link intensity against the untreated enzyme (two cross-links, β loops to α C-terminal domain)” value [3] did it give?
**A.** The value was over 10 fold.

**Q.** What about the “fold decrease of the intensity of the K378-K498 cross-link against the untreated enzyme” value [3] of the same binder?
**A.** Its value is about 5 fold.

B6: chloroplast ATP synthase (cATPase) subunit II, untreated enzyme (natural protein, Spinacia oleracea, UniProt P31853 76-222, looked up)
chain: EEIEKASLFDFNLTLPIIMAEFLFLMFALDKIYYTPLGDFMDKRDASIKEQLSGVKDTSSEVKQLEEQANAVMRAARAEISAALNKMKKETQLEVEAKLAEGRKKIEVELQEALGSLEQQKEDTIKSLDSQISALSDDIVKKVLPVS
modifications: phosphosites identified at S122, S211
notes: ATP synthase subunit b' (CF0 subunit II), chloroplastic, Spinacia oleracea; also called stator subunit II; peripheral stalk subunit II; source: purified from spinach leaves as part of the intact F1FO chloroplast ATP synthase
**Q.** Does B6 bind [5]?
**A.** Result: binds

**Q.** Does B6 bind [1]?
**A.** Result: binds

B7: cATPase subunit II, dephosphorylated enzyme (natural protein, Spinacia oleracea, UniProt P31853 76-222, looked up)
chain: EEIEKASLFDFNLTLPIIMAEFLFLMFALDKIYYTPLGDFMDKRDASIKEQLSGVKDTSSEVKQLEEQANAVMRAARAEISAALNKMKKETQLEVEAKLAEGRKKIEVELQEALGSLEQQKEDTIKSLDSQISALSDDIVKKVLPVS
notes: ATP synthase subunit b' (CF0 subunit II), chloroplastic, Spinacia oleracea; as m6 but treated with phosphatase; The whole complex was treated with the phosphatase; also called II (dephosphorylated form)
**Q.** Does B7 bind [3]?
**A.** Result: binds

**Q.** Does B7 bind [2]?
**A.** Result: binds
